Assay [1] deals with RSV F peptides F85-93 and F249-258 (respiratory syncytial virus, A2 strain).
For assay [2], the target named is RSV F peptide 51-66 (respiratory syncytial virus, A2 strain).

In assay [1], “splenic T cells of BALB/c mice vaccinated with A317 RNA delivered using electroporation (cells without a defined receptor)” came in with a CD8+ CD4- splenic T cells: % cytokine-positive, IFNg+ (intracellular cytokine immunofluorescence) of 0.85%. Moreover, the CD4+ CD8- splenic T cells: % cytokine-positive, TNFa+ (intracellular cytokine immunofluorescence) in assay [2] stood at 0.05%.
Taken in the same sequence, the figures for “splenic T cells of BALB/c mice vaccinated with A317 RNA formulated with CNE17 (cells without a defined receptor)” were 1.25% and 0.05%.
The like results for “splenic T cells of BALB/c mice vaccinated with A317 RNA in liposomes RV01(01) (cells without a defined receptor)” were, in that order, 3.69% and 0.09%.
Taken in the same sequence, the figures for “splenic T cells of BALB/c mice vaccinated with VRPs expressing RSV-F (cells without a defined receptor)” were 3.48% and 0.1%.
Regarding “splenic T cells of BALB/c mice vaccinated with naked self-replicating RNA A317 (cells without a defined receptor)”, in assay [1], the CD8+ CD4- splenic T cells: % cytokine-positive, IFNg+ (intracellular cytokine immunofluorescence) is 0.74%. The substance further returned a CD4+ CD8- splenic T cells: % cytokine-positive, TNFa+ (intracellular cytokine immunofluorescence) in assay [2] of 0.03%.
Taken in the same sequence, the figures for “splenic T cells of unvaccinated BALB/c mice (cells without a defined receptor)” were 0.01% and 0%.

Source of the values: patent publication US20230357370A1.
